Molecular target: mouse serum proteins (serum protein binding assay) (mouse)
Experiment: ultrafiltration of serum

B1: 800-G-Abz4-t-BBN (peptide)
peptide: GQWAVGHLM
modifications: IRDye800 (800CW) on the N-terminus; 4-aminobenzoyl (Abz4) between the linker G and Q; C-terminal amide
percent serum protein bound: > 90%
